Results taken from US20250179173A1 (IMMUNE ONC THERAPEUTICS, published 2025).

Assays:
human LILRB4 [1] = biological target: T1, human LILRB4 (human, UniProt Q8NHJ6 22-259, limits assumed); experiment: blocking of Fibronectin binding to LILRB4; method not stated in the example
T1 construct: also called ILT3; LIR5

human LILRB4 [2] = biological target: T1, human LILRB4; experiment: blocking of APOE binding to LILRB4; method not stated in the example
human LILRB4 [3] = biological target: T1, human LILRB4; experiment: 'Affinity to human LILRB4'; method not stated in the example

IC50 (human LILRB4 [1]): 0.78 nM
IC50 (human LILRB4 [2]): 0.18 nM
Kd (human LILRB4 [3]): 0.5 nM
B1: anti-LILRB4 antibody H7K3m5 (antibody, IgG1, V domains shown)
VH: EVQLVESGGGLVQPGGSLRLSCAASGFSLSSSYWISWVRQAPGKGLEWIGSIDSGSVGITYYATWVKGRFTISRDNSKNTLYLQMNSLRAEDTAVYYCARHGDNWALDLWGQGTLVTVSS
VL: DIQMTQSPSTLSASVGDRVTITCRASQSISSWLAWYQQKPGKAPKLLIYKASTLASGVPSRFSGSGSGTEFTLTISSLQPDDFATYYCQHGYIRGDLDNVFGGGTKVEIK
